Laboratory results from patent US20140370037A1.

B1: hSC16.56-ADC1 (antibody, human IgG1, V domains shown)
VL: EIVMTQSPATLSVSPGERATLSCKASQSVSNDVVWYQQKPGQAPRLLIYYASNRYTGIPARFSGSGSGTEFTLTISSLQSEDFAVYYCQQDYTSPWTFGQGTKLEIKR
VH: QVQLVQSGAEVKKPGASVKVSCKASGYTFTNYGMNWVRQAPGQGLEWMGWINTYTGEPTYADDFKGRVTMTTDTSTSTAYMELRSLRSDDTAVYYCARIGDSSPSDYWGQGTLVTVSS
modifications: here or on the partner: PBD dimer drug-linker ADC1 on reduced Cys residues (positions not stated)
B2: SC16.34 (antibody, V domains shown)
VH: QIQLVQSGPELKRPGETVKISCKASGYTFTNYGMNWVKQAPGKGLKWMGWINTYTGDPTYADDFKGRFAFSLETSASTAYLQINNLKNEDTATYFCARIGGNSPSDYWGQGTSLTVSS
VL: SIVMTQTPKFLLVSAGDRVTITCKASQSVSNDVAWYQQKPGQSPKLLIYYASNRYSGVPDRFTGSGYGTDFTFTISTVQAEDLAVYFCQQDYSSPWTFGGGTKLEIK
B3: hSC16.15-ADC1 (antibody, human IgG1, V domains shown)
VL: AIQLTQSPSSLSASVGDRVTITCRASENIYYNLAWYQQKPGKAPKLLIYTANSLEDGVPSRFSGSGSGTDFTLTISSLQPEDFATYFCKQAYDVPPTFGGGTKLEIK
VH: QVQLVQSGAEVKKPGASVKVSCKASGYTFTRYWIHWIRQAPGQGLEWMGYINPTTVYTEFNQNFKDRVTMTRDTSTSTVYMELSSLRSEDTAVYYCARGGSNFFDYWGQGTTVTVSS
modifications: here or on the partner: PBD dimer drug-linker ADC1 on reduced Cys residues (positions not stated)
B4: SC16.15 (antibody, V domains shown)
VH: QVQLQQSGAELAKPGASVKMSCKASGYTFTRYWIHWIKQRPGQGLEWIGYINPTTVYTEFNQNFKDKATLTADKSSTTASMQLSSLTSEDSAVYYCARGGSNFFDYWGQGTTLTVSS
VL: DIQMTQSPASLAASVGETVAITCRASENIYYNLAWYQQKQGKSPQLLIYTANSLEDGVPSRFSGSGSGTQYSLKINSMQPEDSATYFCKQAYDVPPTFGGGTKLEIK

Experiments:
[1] = target: human DLL3 on cells (human), Q9NYJ7; assay: cell-based or functional assay
Chain of human DLL3 on cells (human), Q9NYJ7 (Q9NYJ7 27-618): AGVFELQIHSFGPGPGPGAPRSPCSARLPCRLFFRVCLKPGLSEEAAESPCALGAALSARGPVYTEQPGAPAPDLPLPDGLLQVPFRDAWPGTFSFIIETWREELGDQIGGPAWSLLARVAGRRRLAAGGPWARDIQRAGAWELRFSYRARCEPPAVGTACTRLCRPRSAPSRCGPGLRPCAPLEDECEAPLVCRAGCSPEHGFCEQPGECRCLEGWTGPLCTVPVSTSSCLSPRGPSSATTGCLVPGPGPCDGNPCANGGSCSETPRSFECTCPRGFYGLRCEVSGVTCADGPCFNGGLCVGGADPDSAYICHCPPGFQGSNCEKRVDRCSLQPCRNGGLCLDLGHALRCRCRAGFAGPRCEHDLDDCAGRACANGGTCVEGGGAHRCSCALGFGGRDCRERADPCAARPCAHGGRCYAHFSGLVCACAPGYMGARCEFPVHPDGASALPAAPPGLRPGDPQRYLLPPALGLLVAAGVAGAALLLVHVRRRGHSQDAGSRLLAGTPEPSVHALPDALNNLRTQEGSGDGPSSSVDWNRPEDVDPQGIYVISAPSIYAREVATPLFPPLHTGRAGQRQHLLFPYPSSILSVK

[2] = target: human DLL3 on cells (human) (UniProt Q9NYJ7); assay: cell-based or functional assay
Chain of human DLL3 on cells (human) (Q9NYJ7 27-618): as above

Binder | EC50 of killing of OV26 NTX tumor cells with anti-mouse IgG Fab-saporin [2] [pM] | also measured
B1 |  | dose that killed 50% of naïve KDY66 cells (7 days, Cell Titer Glo) [1]: 13.3 pM
B2 | 5.7 | 
B3 |  | concentration that killed 50% of LU37 NTX cells (7 days, Cell Titer Glo) [1]: < 10 ng/mL
B4 | 0.14 | 
